Laboratory results published in paper PMC3124540, “A Minimum of Three Motifs Is Essential for Optimal Binding of Pseudomurein Cell Wall-Binding Domain of Methanothermobacter thermautotrophicus” (PLoS ONE, 2011).

Target: the molecule itself
Test: SEC; Superdex 200 10/300 GL, room temperature, 50 mM NaH2PO4, 150 mM NaCl, pH 7.0; calibrated with globular proteins

B1: three pseudomurein binding motifs with C-terminal ten-Histidine tag (3P-His10), the PMB domain of MTH719 (domain or fragment, Methanothermobacter thermautotrophicus)
chain: MGGGFAASVKISVRQLTDAASWVRAYYGRYGRLPGKVTISGHGYSMAQFLYLLCRATVNINAGNVAPISVKSVASAPASGGWYRHGRLYRSSYVRVAKNILSFIDSRGRAPNYAITGLGRIPFQRLVYMYSKIIKFYGTNKRLPNYVTI
notes: short N-terminal peptide region resulting from the cloning procedure (LIC); also called PMB domain 3P-His10; 3P-His10 PMB domain; source: E. coli Rosetta gami 2 (pBADcLIC, arabinose induced), purified (Ni-NTA); not shown: His10, C-terminal, kept
  binding result: binds
